According to PMC3794860, “An RNA-Binding Complex Involved in Ribosome Biogenesis Contains a Protein with Homology to tRNA CCA-Adding Enzyme” (PLoS Biology, 2013):

Target: T1, Utp22 (S. cerevisiae, UniProt P53254 1-1237)
T1 construct: Utp22, yeast, 1,237 residues, amplified from yeast genomic DNA, cloned with no tag; Residues 1-80 and several internal loops are not visible in the crystal; A selenomethionine-labelled form was used for phasing; source: High Five insect cells, recombinant baculovirus, coexpressed with Rrp7, copurified (HisTrap, heparin, Superdex 200)
T1 sequence (looked up): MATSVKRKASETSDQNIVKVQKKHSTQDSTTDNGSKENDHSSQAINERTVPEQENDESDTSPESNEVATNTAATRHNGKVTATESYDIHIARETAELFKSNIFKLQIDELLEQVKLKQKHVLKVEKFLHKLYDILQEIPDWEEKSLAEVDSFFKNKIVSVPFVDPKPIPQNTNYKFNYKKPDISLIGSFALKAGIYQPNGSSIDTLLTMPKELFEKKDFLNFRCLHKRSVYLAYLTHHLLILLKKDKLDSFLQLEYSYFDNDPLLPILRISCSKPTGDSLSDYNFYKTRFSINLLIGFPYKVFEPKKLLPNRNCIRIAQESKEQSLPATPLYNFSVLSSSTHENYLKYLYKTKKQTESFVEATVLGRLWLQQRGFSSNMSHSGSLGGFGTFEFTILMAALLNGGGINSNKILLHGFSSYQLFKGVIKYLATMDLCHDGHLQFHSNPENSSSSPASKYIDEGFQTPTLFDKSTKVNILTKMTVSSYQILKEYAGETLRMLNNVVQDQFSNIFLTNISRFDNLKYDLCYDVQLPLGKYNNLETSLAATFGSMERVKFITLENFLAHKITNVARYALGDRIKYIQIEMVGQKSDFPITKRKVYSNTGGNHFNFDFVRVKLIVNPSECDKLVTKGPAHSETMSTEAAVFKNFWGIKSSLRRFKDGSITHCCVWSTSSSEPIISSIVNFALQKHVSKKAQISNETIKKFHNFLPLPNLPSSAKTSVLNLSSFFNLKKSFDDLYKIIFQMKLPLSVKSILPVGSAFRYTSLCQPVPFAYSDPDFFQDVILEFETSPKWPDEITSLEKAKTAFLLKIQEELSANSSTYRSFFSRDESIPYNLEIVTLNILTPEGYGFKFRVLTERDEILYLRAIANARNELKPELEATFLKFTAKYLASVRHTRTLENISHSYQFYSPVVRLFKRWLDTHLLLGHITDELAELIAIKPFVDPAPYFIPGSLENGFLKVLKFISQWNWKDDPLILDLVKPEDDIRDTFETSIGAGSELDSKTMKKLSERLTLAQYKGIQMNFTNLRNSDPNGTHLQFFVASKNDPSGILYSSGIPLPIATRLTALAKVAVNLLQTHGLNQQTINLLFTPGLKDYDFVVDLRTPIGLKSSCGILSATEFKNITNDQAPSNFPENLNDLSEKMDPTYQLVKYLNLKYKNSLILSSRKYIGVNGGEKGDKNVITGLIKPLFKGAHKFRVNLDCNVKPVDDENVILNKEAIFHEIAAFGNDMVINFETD
Assay: crystal structure; Utp22 and Rrp7 coexpressed in insect cells, copurified and cocrystallised; hanging drop, 20°C, 100 mM sodium cacodylate pH 6.2–6.5, 30% PEG 400, 200 mM lithium sulfate; refined to 1.97 Å
Details: both partners purified

B1: Rrp7 (natural protein, S. cerevisiae, UniProt P25368 1-297, looked up)
chain: MGIEDISAMKNGFIVVPFKLPDHKALPKSQEASLHFMFAKRHQSSNSNESDCLFLVNLPLLSNIEHMKKFVGQLCGKYDTVSHVEELLYNDEFGLHEVDLSALTSDLMSSTDVNEKRYTPRNTALLKFVDAASINNCWNALKKYSNLHAKHPNELFEWTYTTPSFTTFVNFYKPLDIDYLKEDIHTHMAIFEQREAQAQEDVQSSIVDEDGFTLVVGKNTKSLNSIRKKILNKNPLSKHENKAKPISNIDKKAKKDFYRFQVRERKKQEINQLLSKFKEDQERIKVMKAKRKFNPYT
notes: N-terminal His6-tag followed by a PreScission site, cleaved with PreScission protease; source: High Five insect cells, recombinant baculovirus, coexpressed with Utp22, copurified (HisTrap, heparin, Superdex 200); not shown: His6, N-terminal, cleaved
binding result: binds
